From patent US20240092890A1 (JUNTENDO EDUCATIONAL FOUNDATION, published 2024) come the findings set out here.

Assay [1] has as its target T1, Ins 5 type mutant CALR protein on UT-7/TPO CALR Ins 5 cells (UniProt P27797 18-417).
T1 sequence (looked up): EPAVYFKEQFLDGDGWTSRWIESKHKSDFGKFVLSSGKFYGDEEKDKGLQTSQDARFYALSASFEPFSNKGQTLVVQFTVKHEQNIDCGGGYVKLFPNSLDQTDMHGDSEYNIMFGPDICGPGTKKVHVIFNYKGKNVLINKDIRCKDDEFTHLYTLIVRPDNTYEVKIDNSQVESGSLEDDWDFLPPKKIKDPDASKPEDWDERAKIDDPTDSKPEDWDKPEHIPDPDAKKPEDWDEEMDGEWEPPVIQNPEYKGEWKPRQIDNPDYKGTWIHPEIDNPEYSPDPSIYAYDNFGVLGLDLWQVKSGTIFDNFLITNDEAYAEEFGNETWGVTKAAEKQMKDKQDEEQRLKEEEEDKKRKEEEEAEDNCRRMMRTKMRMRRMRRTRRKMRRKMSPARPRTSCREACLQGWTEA
In words: cell-based or functional assay.

In assay [2] the target is T2, protein having an Fc region and a His-tag added to the N-terminus of SEQ ID NO: 1.
T2 construct: also called mutant CALR protein (antigen of the BLItz measurement); not shown: Fc region and His-tag at the N-terminus
T2 chain: RRMMRTKMRMRRM
In words: BLItz biolayer interferometry, Fc/His-SEQ ID NO: 1 protein on the biosensor. In outline:
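The Fc/His-tagged protein was loaded at 0.1 mg/mL onto Anti-Penta-HIS or Protein A biosensors. Antibodies were run at 500, 100 and 50 nM by biolayer interferometry, and the dissociation constant was derived from these binding curves.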

B1: Antibody 111 (bispecific antibody)
chain 1: not shown
chain 2: DIQMTQSPSSLSASVGDRVTITCLASEDIYSYLAWYQQKPGKAPKLLIFAANRLQSGVPSRFSGSGSGTDFTLTISSLQPEDFATYYCLQGSKFPYTFGPGTKVDIKRTVAAPSVFIFPPSDEQLKSGTASVVCLLNNFYPREAKVQWKVDNALQSGNSQESVTEQDSKDSTYSLSSTLTLSKADYEKHKVYACEVTHQGLSSPVTKSFNRGEC
chain 3: DKTHTCPPCPAPEAAGGPSVFLFPPKPKDTLMISRTPEVTCVVVDVSHEDPEVKFNWYVDGVEVHNAKTKPREEQYNSTYRVVSVLTVLHQDWLNGKEYKCKVSNKALPAPIEKTISKAKGQPREPQVCTLPPSREEMTKNQVSLSCAVKGFYPSDIAVEWESNGQPENNYKTTPPVLDSDGSFFLVSKLTVDKSRWQQGNVFSCSVMHEALHNHYTQKSLSLSPGK
Regarding B1, the “EC50 of cytotoxic activity (pM)” value in assay [1] was determined as 6110 pM. In addition, in assay [2], the Kd was 12.8 nM.

B2: Antibody 109 (bispecific antibody)
chain 1: not shown
chain 2: DIQMTQSPSSLSASVGDRVTITCLASEDIYSYLAWYQQKPGKAPKLLIFAANRLQSGVPSRFSGSGSGTDFTLTISSLQPEDFATYYCLQGSKFPYTFGPGTKVDIKRTVAAPSVFIFPPSDEQLKSGTASVVCLLNNFYPREAKVQWKVDNALQSGNSQESVTEQDSKDSTYSLSSTLTLSKADYEKHKVYACEVTHQGLSSPVTKSFNRGEC
chain 3: DKTHTCPPCPAPEAAGGPSVFLFPPKPKDTLMISRTPEVTCVVVDVSHEDPEVKFNWYVDGVEVHNAKTKPREEQYNSTYRVVSVLTVLHQDWLNGKEYKCKVSNKALPAPIEKTISKAKGQPREPQVCTLPPSREEMTKNQVSLSCAVKGFYPSDIAVEWESNGQPENNYKTTPPVLDSDGSFFLVSKLTVDKSRWQQGNVFSCSVMHEALHNHYTQKSLSLSPGK
As to B2, the “EC50 of cytotoxic activity (pM)” value in assay [1] turned out to be 3800 pM. Binding in assay [2] was put at a Kd of 9.91 nM.

B3: Antibody 110 (bispecific antibody)
chain 1: not shown
chain 2: DIQMTQSPSSLSASVGDRVTITCLASEDIYSYLAWYQQKPGKAPKLLIFAANRLQSGVPSRFSGSGSGTDFTLTISSLQPEDFATYYCLQGSKFPYTFGPGTKVDIKRTVAAPSVFIFPPSDEQLKSGTASVVCLLNNFYPREAKVQWKVDNALQSGNSQESVTEQDSKDSTYSLSSTLTLSKADYEKHKVYACEVTHQGLSSPVTKSFNRGEC
chain 3: DKTHTCPPCPAPEAAGGPSVFLFPPKPKDTLMISRTPEVTCVVVDVSHEDPEVKFNWYVDGVEVHNAKTKPREEQYNSTYRVVSVLTVLHQDWLNGKEYKCKVSNKALPAPIEKTISKAKGQPREPQVCTLPPSREEMTKNQVSLSCAVKGFYPSDIAVEWESNGQPENNYKTTPPVLDSDGSFFLVSKLTVDKSRWQQGNVFSCSVMHEALHNHYTQKSLSLSPGK
With B3, in assay [1], the “EC50 of cytotoxic activity (pM)” value worked out at 2540 pM. The molecule further came in with a dissociation constant (Kd) in assay [2] of 5.33 nM.

B4: Antibody 107 (bispecific antibody)
chain 1: not shown
chain 2: DIQMTQSPSSLSASVGDRVTITCLASEDIYSYLAWYQQKPGKAPKLLIFAANRLQDGVPSRFSGSGSGTDFTLTISSLQPEDFATYYCLQGSKFPYTFGPGTKVDIKRTVAAPSVFIFPPSDEQLKSGTASVVCLLNNFYPREAKVQWKVDNALQSGNSQESVTEQDSKDSTYSLSSTLTLSKADYEKHKVYACEVTHQGLSSPVTKSFNRGEC
chain 3: DKTHTCPPCPAPEAAGGPSVFLFPPKPKDTLMISRTPEVTCVVVDVSHEDPEVKFNWYVDGVEVHNAKTKPREEQYNSTYRVVSVLTVLHQDWLNGKEYKCKVSNKALPAPIEKTISKAKGQPREPQVCTLPPSREEMTKNQVSLSCAVKGFYPSDIAVEWESNGQPENNYKTTPPVLDSDGSFFLVSKLTVDKSRWQQGNVFSCSVMHEALHNHYTQKSLSLSPGK
With B4, in assay [1], the “EC50 of cytotoxic activity (pM)” value was 3870 pM. The molecule also returned a Kd in assay [2] of 12.1 nM.

B5: Antibody 114 (bispecific antibody)
chain 1: DIQMTQSPSSLSASVGDRVTITCLASEDIYSYLAWYQQKPGKAPKLLIFAANRLQSGVPSRFSGSGSGTDFTLTISSLQPEDFATYYCLQGSKFPYTFGPGTKVDIKGGGGSGGGGSGGGGSQVQLVQSGAEVKKPGSSVKVSCKASGYTFTRNFIHWIRQAPGQGLEWIGWIFPGDADTEYNQKFSGRATITADKSTSTAYMELSSLRSEDTAVYYCARGNYNYEYFDYWGQGTMVTVSSGGGGSGGGGSGGGGSDKTHTCPPCPAPEAAGGPSVFLFPPKPKDTLMISRTPEVTCVVVDVSHEDPEVKFNWYVDGVEVHNAKTKPREEQYNSTYRVVSVLTVLHQDWLNGKEYKCKVSNKALPAPIEKTISKAKGQPREPQVCTLPPSREEMTKNQVSLSCAVKGFYPSDIAVEWESNGQPENNYKTTPPVLDSDGSFFLVSKLTVDKSRWQQGNVFSCSVMHEALHNHYTQKSLSLSPGK
chain 2: not shown
As for B5, the “EC50 of cytotoxic activity (pM)” value in assay [1] stood at 790 pM. In assay [2], this molecule showed a Kd of 6.06 nM.
